Measured values from PMC4281067, “New Insight into Secreted Ribonuclease Structure: Binase Is a Natural Dimer” (PLoS ONE, 2014).

Target: the molecule itself
Experiment: SDS-PAGE (SDS-resistant dimer band) with LC-MS/MS of the excised bands; lyophilised pure binase on 15% SDS-PAGE with 0.1% SDS; 12 and 25 kDa bands, both detected by anti-binase immunoblot and in-gel RNase activity; 25 kDa band not fully lost with 2% SDS or 4-8 M urea; bands trypsin-digested and identified by LC-MS/MS

B1: binase (guanyl-preferring RNase secreted by Bacillus pumilus), wild-type enzyme designated as "native" binase (enzyme, Bacillus pumilus (former B. intermedius), UniProt P00649 54-162, looked up)
chain: AVINTFDGVADYLIRYKRLPDNYITKSQASALGWVASKGNLAEVAPGKSIGGDVFSNREGRLPSASGRTWREADINYVSGFRNADRLVYSSDWLIYKTTDHYATFTRIR
notes: binase, secreted RNase of Bacillus pumilus (former B. intermedius); single chain of 109 amino acids, molecular weight 12.3 kDa; secreted enzyme isolated from the medium; binase has no sulfhydryl groups; also called B. intermedius RNase; wild-type binase; source: isolated from the medium of B. pumilus 7P, purified (MonoS), lyophilised; also unpurified B. pumilus culture fluid
- stoichiometry N: 2
